First the molecules themselves.
B1: POU domain, class 4, transcription factor 3, residues 185 to 256; numbered along this chain, Q15319 (parent)
chain: RELEAFAERFKQRRIKLGVTQADVGAALANLKIPGVGSLSQSTICRFESLTLSHNNMIALKPVLQAWLEEAE

± gives the uncertainty stated by the source.

For 38 variants, abundance fitness results are on record in the Human Domainome abundance scans (Beltran et al. 2025).

The series covers variants of B1. As to the kind of experiment: abundance fitness (aPCA) (normalised: wild type 0, dead -1); higher = more abundant; growth selection in yeast, the domain comes from the species named. Conditions: Homo sapiens.
For the variant RELEAFAERFKQRRIKLLVTQADVGAALANLKIPGVGSLSQSTICRFESLTLSHNNMIALKPVLQAWLEEAE [G18L], the abundance fitness was -0.703 ± 0.064. Under RELEAFAERFKQRRIKLRVTQADVGAALANLKIPGVGSLSQSTICRFESLTLSHNNMIALKPVLQAWLEEAE [G18R] stands -0.249 ± 0.11. Regarding RELEAFAERFKQRRIKLWVTQADVGAALANLKIPGVGSLSQSTICRFESLTLSHNNMIALKPVLQAWLEEAE [G18W], the abundance fitness is -1.05 ± 0.2.

Turning to RELEAFAERFKQRRIVLGVTQADVGAALANLKIPGVGSLSQSTICRFESLTLSHNNMIALKPVLQAWLEEAE [K16V], the abundance fitness was -0.099 ± 0.042. Under REKEAFAERFKQRRIKLGVTQADVGAALANLKIPGVGSLSQSTICRFESLTLSHNNMIALKPVLQAWLEEAE [L3K] stands -0.482 ± 0.083; under REMEAFAERFKQRRIKLGVTQADVGAALANLKIPGVGSLSQSTICRFESLTLSHNNMIALKPVLQAWLEEAE [L3M], -0.261 ± 0.093; under LELEAFAERFKQRRIKLGVTQADVGAALANLKIPGVGSLSQSTICRFESLTLSHNNMIALKPVLQAWLEEAE [R1L], -0.125 ± 0.049. Consider TELEAFAERFKQRRIKLGVTQADVGAALANLKIPGVGSLSQSTICRFESLTLSHNNMIALKPVLQAWLEEAE [R1T], for which the abundance fitness is -0.133 ± 0.13. Under RELEAFAERFKQRRIKLGVTQADVGAALANLKIPGVGSLSQSTICRFESLTLSHNNMIALKPVLQAWLEVAE [E70V] stands -0.307 ± 0.036; under RELEAFAERFKQRRIKLGVTQADVGAALANLKIPGVGSLSQSTICRFESLTLSHNNMKALKPVLQAWLEEAE [I58K], -0.058 ± 0.12; under RELEAFAERFKQRRIKLGVTQADVGAALANLKIPGVGSLSQSTICRFESLTLSHNNMIALKVVLQAWLEEAE [P62V], -0.378 ± 0.033. Under RELEAFAERFKQRRIKLGVTPADVGAALANLKIPGVGSLSQSTICRFESLTLSHNNMIALKPVLQAWLEEAE [Q21P] stands -0.238 ± 0.38. Turning to RELEAFAERFKQRRIKLGVTQADLGAALANLKIPGVGSLSQSTICRFESLTLSHNNMIALKPVLQAWLEEAE [V24L], the abundance fitness is -0.137 ± 0.024. Take RELEAFAERFKQRRIKLGVTQADIGAALANLKIPGVGSLSQSTICRFESLTLSHNNMIALKPVLQAWLEEAE [V24I]: the abundance fitness was -0.123 ± 0.051. Under RELEAFAERFKQRRIKLGVTQADGGAALANLKIPGVGSLSQSTICRFESLTLSHNNMIALKPVLQAWLEEAE [V24G] stands -0.858 ± 0.075; under RELEAFAERFKQRRIKLGVTQADRGAALANLKIPGVGSLSQSTICRFESLTLSHNNMIALKPVLQAWLEEAE [V24R], -0.83 ± 0.038; under RELEAFAERFKQRRIKLGVTQADKGAALANLKIPGVGSLSQSTICRFESLTLSHNNMIALKPVLQAWLEEAE [V24K], -0.937 ± 0.087.

Take RELEAFAERFKQRRIKLGVTQADVGAALANLKIPGVGSLSQSTICRFESLTLSHNNMIALKPVLQAWLEEKE [A71K]: the abundance fitness worked out at 0.002 ± 0.027.

As to RELEAFAERFKQRRIKLGQTQADVGAALANLKIPGVGSLSQSTICRFESLTLSHNNMIALKPVLQAWLEEAE [V19Q], the abundance fitness was -0.151 ± 0.055. Under RELEAFAERFKQRMIKLGVTQADVGAALANLKIPGVGSLSQSTICRFESLTLSHNNMIALKPVLQAWLEEAE [R14M] stands -0.945 ± 0.084; under RELEAFAERFKQWRIKLGVTQADVGAALANLKIPGVGSLSQSTICRFESLTLSHNNMIALKPVLQAWLEEAE [R13W], -0.297 ± 0.039; under RELEAFAERFKQRRIKLGVTQADVGAALANLKIPGSGSLSQSTICRFESLTLSHNNMIALKPVLQAWLEEAE [V36S], -0.077 ± 0.059. Regarding RELEAFVERFKQRRIKLGVTQADVGAALANLKIPGVGSLSQSTICRFESLTLSHNNMIALKPVLQAWLEEAE [A7V], the abundance fitness is 0.039 ± 0.029. Under RELEAFAERFKQRRIKLGVTQADVGAALANLKIPGVGSLSQSTICRFEGLTLSHNNMIALKPVLQAWLEEAE [S49G] stands -0.138 ± 0.057; under RELEAFAERFKQRRIKLGVTQADVGAALANLKIPGVGSLSQSTIHRFESLTLSHNNMIALKPVLQAWLEEAE [C45H], 0.053 ± 0.079; under RELEAFAERFKQRRIKLGVTQADVGAALLNLKIPGVGSLSQSTICRFESLTLSHNNMIALKPVLQAWLEEAE [A29L], -0.21 ± 0.059. Under RELEAFAERFKQRRIKLGVTQADVGAALANLKIPIVGSLSQSTICRFESLTLSHNNMIALKPVLQAWLEEAE [G35I] stands -0.569 ± 0.2; under RELEAFAERFKQRRIKLGVTQADVGAALANLKIPGVGSLSQSTICRFESLTLKHNNMIALKPVLQAWLEEAE [S53K], -0.222 ± 0.093. Under RELEAFAERFKQRRIKLGVTQADVGAALANLKIPGVGSLSQSTICRFESLTLSHNNMIALKPVLQAWLEEAG [E72G] stands -0.278 ± 0.037; under RELEAFAERFKQRRIKLGVTQADVGAALANLKIPGVGMLSQSTICRFESLTLSHNNMIALKPVLQAWLEEAE [S38M], -0.006 ± 0.03; under RELEAFAERFKQRRIKLGVTQADVGAALANLKIPGVGSLSQSTICRFESLTLSHNNMIAAKPVLQAWLEEAE [L60A], -0.289 ± 0.17.

With RELEAFAERFKQRRIKLGVTQADVGHALANLKIPGVGSLSQSTICRFESLTLSHNNMIALKPVLQAWLEEAE [A26H], the abundance fitness is -0.052 ± 0.058.

Consider RELEAFAERFKQRRIKLGVTQADVGAALANLKIPGVGSLSQSMICRFESLTLSHNNMIALKPVLQAWLEEAE [T43M], for which the abundance fitness is -0.053 ± 0.086.

RELFAFAERFKQRRIKLGVTQADVGAALANLKIPGVGSLSQSTICRFESLTLSHNNMIALKPVLQAWLEEAE [E4F]: the abundance fitness stood at 0.03 ± 0.055. Under RELEAFAERFKQRRIKLGVTQADVGAALANLKIPGVGSLSQSTICRFESLTLSHNNMIALKPVLQEWLEEAE [A66E] stands 0.053 ± 0.09. RELEAFAERFKQRRIKLGVTQADVGAALANLKIPGVGSLSQSTICRFESLTLSHNNMIALKPVLQKWLEEAE [A66K]: the abundance fitness was determined as 0.079 ± 0.12.

In the case of RELEAFAERFKQRRIKLGVTQADVGARLANLKIPGVGSLSQSTICRFESLTLSHNNMIALKPVLQAWLEEAE [A27R], the abundance fitness is -0.384 ± 0.14. Under RELEAFAERFKQRRIKLGVTQADVGAALANLKIPGVGSLSQSTICRFESLTLSHNNMIALKPVLQAWMEEAE [L68M] stands -0.056 ± 0.031.
